The results in this text go back to article PMC7058617 (Signal Transduction and Targeted Therapy, 2020).

For test [1], the target named is human CD47 extracellular domain (CD47-ECD) (human) (UniProt Q08722). The experiment in a line: SPR. As to conditions: bispecific antibody.
In test [2] the target is PD-L1 extracellular domain (PD-L1-ECD) (UniProt Q9NZQ7). Kind of test: SPR. As to conditions: bispecific antibody.
Test [3] addresses T1, human CD47 extracellular domain (CD47-ECD) (human, UniProt Q08722, N-linked glycosylation observed at all five potential sites in the complex structure (N32 and N55 among them)).
T1 construct: CD47, human, extracellular domain; also called WT CD47-ECD; human CD47-ECD antigen
The experiment in a line: SPR; h4C1 and CD47-ECD proteins (WT, N32A, N55A); who was immobilised and the conditions are not given. The conditions noted are these: both partners purified. For orientation: SPR reads the build-up and loss of mass on a sensor chip optically.

PD-L1 extracellular domain (PD-L1-ECD), sequence (Q9NZQ7 19-238): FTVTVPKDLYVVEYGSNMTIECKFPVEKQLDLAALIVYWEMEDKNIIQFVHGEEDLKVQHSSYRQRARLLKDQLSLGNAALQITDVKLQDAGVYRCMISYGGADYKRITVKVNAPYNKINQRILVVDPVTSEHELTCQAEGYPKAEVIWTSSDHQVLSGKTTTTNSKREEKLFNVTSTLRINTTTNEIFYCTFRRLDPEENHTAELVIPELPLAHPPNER
human CD47 extracellular domain (CD47-ECD) (human), sequence (Q08722 19-141): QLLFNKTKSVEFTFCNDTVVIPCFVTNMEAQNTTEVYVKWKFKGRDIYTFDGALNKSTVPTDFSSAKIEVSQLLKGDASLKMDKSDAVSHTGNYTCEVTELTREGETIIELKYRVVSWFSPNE
T1 sequence (Q08722 19-141): as above

On to “CD47/PD-L1 dual-targeting bispecific antibody (DVD-Ig format) (from UniProt P01861)”, for which the Kd came out at 17.4 nM in test [1] and 0.74 nM in test [2].

B1: Humanized 4C1 (h4C1) monoclonal antibody (antibody, V domains shown)
VH: QVQLVQSGAEVKKPGASVKVSCKASGYTFTSYVMHWVRQAPGQRLEWMGYINPYNDGTKYNEKFKGKATLTSDKSTSTAYMELSSLRSEDTAVYYCARTEGHFYVSWFAYWGQGTLVTVSS
VL: DIQMTQSPSSLSASVGDRVTISCRTSQDISNYLNWYQQKPGKAPKLLIYYTSRLHSGVPSRFSGSGSGTDYTFTISSLQPEDIATYYCQQGNTLPFTFGQGTKLEIK
notes: Humanised from the murine mAb m4C1 (raised in mice immunised with human CD47); also called h4C1 mAb
In test [3], B1 gave an equilibrium dissociation constant (Kd) of 0.85 nM.

Usually Kd stands for the constant that tells how readily two partners part at equilibrium. A low value points to tighter binding.
